According to the nanobody polyreactivity screen of Harvey et al. (2022):

Assay: yeast display, Sf9 membrane polyspecificity reagent, FACS + sequencing; frameworks hold sequencing errors
In short: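 Galactose induction of a Saccharomyces cerevisiae BJ5465 synthetic nanobody display library ran 36–48 hours. The cells were then stained for 1 hour at 4 °C with 10% biotinylated, detergent-solubilized Sf9 membrane reagent, pulled down on streptavidin microbeads and FACS-sorted into low and high (top ~1%) gates on expression and reagent-binding fluorescence. Labels for polyreactivity follow the gate of origin.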

Row | Sequence | polyreactivity (PSR sort gate)
1 | QVQLVESGGGLVQAGGSLSLSCAASGRIFADNAMGWYRQSPGKESELVADITYSGGSTYYAESVKGRFTISRDNAKNTLYLQMNSLNPEDTAFYYCAKQCVDYWGQGTQVTVSS | low polyreactivity
2 | QVQLVESGGGLVQAGGSLRLSCAASGSIFLVNDKGWYRPAPGKERELVAAISSRGGSTYYADSVKGRFTISRDNAKNTVYLQMNSLKPEDTAVYYCAALQRPLEGLLYYYWGQGTPVTVSS | low polyreactivity
3 | QVQLVESGGGLLQAGGSLRLSCPASGRIFDPYTMGSYRQAPGKERELVARITRRGGRTYYADSVKGRFTISRDNAKNTVYLQMNSLKPEDTAVYYCNADFSYRYYGAYDDWGQGTQVTVSS | high polyreactivity
4 | QVQLVESGGGVVQAGGSLRLSCAASGSIFKSYAMGWYRQAPGKERELVAAITWSGGSTHYADSVKGRFTISRDNAKNTVYLQMNSLKPEDTAVYYCAADGYTGQAELDSWGQGTQVTVSS | low polyreactivity
5 | QVQLVESGGGLVQSGGSLRLSCAASGLIFTSYAMGWYRQAPGKERELVAAISYSGGTTFYADYVKGRFTISRDNAKNTVYLQMNSLKPEDTAVYYCAADSLSTTHDTLGYDRDDYWGQGTQVTVSS | low polyreactivity
6 | QVQLVESGGGLVQAGGSLRLSCAASGSIFKTYAMGWYRQAPGKERELVAAITSGVSTNYADSVKGRFTISRDNAKNTVYLQMNSLKPEDTAVYYCNVDTSSPSRRDYDYWGQGTQVTVSS | low polyreactivity
7 | QVHLVESGGGLVQAGGSLRLSCAASGSIFGSYAMGWYRQAPGKERELVAAITIADITYYADSVKGRFTISRDNAKNTVNLQMNSLKPEDTAVYYCNAYWGWRDSWYYYWGQGTQVTVSS | low polyreactivity
8 | QVQLVESGGGLVQAGGSLRLSCAASGRIFSRYAMGWYRQAPGKERELVATITRRGGSTSYADSVKGRFTISRDNAKNTVYLQMNSLKPEDTAVYYCAAQSFYGIYYGQQDYDYWGQGTQVTVSS | high polyreactivity
9 | QVQLVESGGGLVQAGGSLRLSCAASGFIFRYYAMGWYRQAPGKERELVAAISSGGGTYYADSVKGRFTISRDNAKNTVYLQMNSLKPEDTAVYYCNKASTSYYRFNYWGQGTQVTVSS | high polyreactivity
10 | QVQLVESGGGLVQAGGSLRLSCAASGFIFRLYTMGGYRQAPGKERELVAAISWSGGRTYYADSVKGRFTISRDNAKNTVYLQMNSLKPEDTAVYYCAKDLYLHTYYAYPYRFGSGYYWGQGTQVTVSS | low polyreactivity
11 | QVQLVESGGGLVQAGGSLRLSCAASGSTFVPYAMGWYRQAPGKERELVAAISSAGSTNYADSVKGRFTISRDNAKNTVYLQMNSLKPEDTAVYYCARDIQDTYVFDYWGQGTQVTVSS | low polyreactivity
12 | QVQLVESGGGLVQAGGSLRLSCADSGRTLGVYAMRWYRQAPGKERELVASISFSGGRTYYADSVKGRFTISRDNAKNTVYLQMNSLKPEDTAVYYCAAGGRVRYQTKYRYGYDYWGQGTQVTVSS | low polyreactivity
13 | QVQLVESGGGLVQAGGSLRLSCAASGRIFGYYVMGWYRQAPGKERELVAAISRSGGSTYYADSVKGRFTISRDNAKNTVYLEMNSLKPEDTAVYYCANYSPRYPNYDYWGQGTQVTVSS | high polyreactivity
14 | QVQLVESGGGLVQAGGSLRLSCAASGRIFRFYTMAWYRQAPGKERELVAAITQRGGRTYYADSVKGRFTISRDNAKNTVYLLMNSLKPEDTAVFYCAATTTVAEYDYWGQGTQVTVSS | high polyreactivity
15 | QVQLVESGGGLVQAGGSLRLSCAASGRIFRYYAMGWYRQAPGKERELVASITYSGGRTNYADSVKGRFTISRDNAKNTVYLQMNSLKPEDTAVYYCNSAYVYYYPHYRYAPTAVDYDYWGQGTQVTVSS | low polyreactivity
16 | QVQLVESGGGLVQAGGSLRLSCAASGGIFLRYSMGWYRQAPGKERELVAAITANGGSTYYADSVKGRFTISRDNAKNTVYLQMISMKPEDTAVYYCNADSFPALNKRGYDYWGQVTQVTVSS | low polyreactivity
17 | QVQLVESGGGLVQAGGSLRLSCAASGSIFHYNAMGWYRQAPGKERELVAAISTSGGSTYYADSVKGRFTISRDNAKNTVYLQMNSLKPEDTAVYYCNAYHRYRRLEMYYWGQGTQVTVSS | high polyreactivity
18 | QVQLVESGGGLVQAGGSLRLSCAASGFTFSRYAMGWYRQAPGKERELVAAISRSGGRTSYADSVKGRFTISRDNSKNTVFLQMNSLKPEDTAVYYCAARTATGSSSSIGYGYWGQGTQVTVSS | high polyreactivity
19 | QVQLVESGGGLVQAGGSLRLSCAASGIIFDDYAMGWYRQAPGKERELVAAITTSGGRTYYADSVKGRFTISRDNAKNTVYLQMNSLKPEDTAVYYCATRRGRAYRWMNYWGQGTQVTVSS | high polyreactivity
20 | QVQIEESGGGLVQAGGSLRLTCAASGRIFYLNAMGWYRQAPGKERELVAGITNSTTGTYYADSVKGRFTISRDNAKNSVYLQMNSLKPEDTAVFYCNTDVAYEEPVETYDYWGQGTQVTVSS | low polyreactivity
21 | QVQLVESGGGLVQAGGSLRLSCAASGSTLGRYAMGWYRQAPGKERELVASITWSDDSTYYADSVKGRFTISRDNAKNTVSLQMNSLKPEDTAVYYCAAAANLYTYRFYYWGQGTQVTVSS | low polyreactivity

Row | Sequence | polyreactivity (PSR sort gate)
22 | QVQLVESGGGLVQAGGSLRLSCAASGRTFTFYTMGCYRQSPGKERELVAAITRSGGGTYYADSVKGRFTISRDNAKNTVYLQMNSLKPEDTAVYYCAAYNRNAFHWGQGTQVTVSS | high polyreactivity
23 | QVQLVESGGGLVQAGGSLRLSCAASGSIFATYAMGWYRQAPGKERELGAAISRSGGSTYYADSVKGRFTISRDNAKNTVYLQMNSLKPEDTAVYYCAAVRGYGWWWSRWGSREYWGQGTQVTVSS | high polyreactivity
24 | QVQLVESGGGLVQAGGSLRLSCAASGIIIRYYGMGWYRQAPGKERELVARIRWTGGSTYYADSVKGRFTISRDNAKNTVYLQMNSLKPEDTAVYYCAAQWKYRQSYLDYYWGQGTQVTVSS | low polyreactivity
25 | QVQLVESGGCLVQAGGSLRLSSAASGSTFQNYAMGWYRQATGKERELVAAISSGGRTYYADSVKGRFTISRDNAKNTVYLQMYSLKPEDTAVYYCAVRYRVYKFQYGYWGQGTQVTVSS | high polyreactivity
26 | QVQLVESGGGLVQAGGSLRLICAASGIIFYGYGMGWYRQARGKERELVAAITRSGGRTYYADSVKGRFTISRDNAKNTVYLQMNSLKPEDTAVYYCAAKRRTGGNGYWGQGTQVTVSS | high polyreactivity
27 | QVQLVDSGGGLVQAGGSLRLSCAASGRIFHVYAMGWYRKAPGKERELLADITWSGGSTYYADSVKGRFTISRDNAKNTVYLQMNSLKPEDTAVYYCAAAYYGYARWRGPRKMDYWGQGTQVTVSS | high polyreactivity
28 | QVQLVESGGGLVQAGGSLRLSCAASGITFTEYAMGWYRQAPGKERELVATISYGGGITYYADSVKGRFTISRDNAKNTVYLQMNSLKPEDTAVYYCAADGLSQVQRGMDYWGQGTQVTVSS | low polyreactivity
29 | QVQLVESGGGLVQAGGSLRLSCAASGIIFGSYAMGWYRQAPGKERELVAAISTSGGSTYYADSVKGRFTISRDNAKNTVYLQMNSLKPEDTAVYYCNKAGVYRDSSRYNYWGQGTQVTVSS | high polyreactivity
30 | QVQLVDSGGGLVQAGGSLRLTCAASGRTFYGNAMGWYRQAPGKERELVATINYSGGSTYYADSVKGRFTISRDNAKNTVYLQMNSLKPEDTAVYYCAADDPEEFDYWGQGTQVTVSS | low polyreactivity
31 | QVQLVESGGGLVQAGGSLRLSCAASGYTFAPYVMGWYRPAPGKERELVARISNNGGSTYYADSVKGRFTISRDNAKNTVYLQMNSLKPEDTAVYYCAADVGLIYFRYYYWGQGTQVTVSS | low polyreactivity
32 | QVQLVESGGGLVQAGGSLRLSCAASGLIFTSYAMGWYRQAPGKERELVAAISYSGGTTIYADSVKGRFTISRDYAKNTVYLQMNSVKPEDTAVYYCAADSLSTTHDTLGYDRDDYWGQGSQVTVSS | low polyreactivity
33 | QVQLVESGGGLVQAGGSLRLSCAASGLIFRTYTMGWNRQAPGKERELVAVISTSGGTTYYADSVKGRFTISRDNAKNTVYLQMNSLKPEDTAVYYCAKRYYWKYAEYDYWGQGSQVTVSS | high polyreactivity
34 | QVQLVESGGGLVQAGGSLRLSCAASGLTFWAYFMGWYRQAPGKEREFVAAITLSSGSTYYADSVKGRFTISRDNEKNTVYLQMNSLKPEYTAVYYCAATRDYGYWMYSWGQGTQGTVSS | high polyreactivity
35 | QVQLVESGGGLVQAGGSLRLSCAASGRIFRWYAMGWYRQAPGKERELVAAISYSGGSTYYADSVKGRFTISRDNAKNTVYLQMNRLKPEDTAVYYCNAVLYTPVYDGFDSWGQGTQVTVSS | high polyreactivity
36 | QVQLVESGGGLVQAGGSLRLSCASSGTFFGYAMGWYRQAPGKERELVAAITSGGSTYYADSVKGRFTISRDNAKNTVYLQMNSLKPEDTAGYYCARVYSRWSYRYDYWGQGTQVTVST | low polyreactivity
37 | QGQLEESGGGLVQAGGSLRLSCAASGRIFRYNTMGWYRQAPGKERELVADITSSDSSTYYADSVKGRFTISRDNAKNTLYLQMNSLKPEDTEVYFCAARDSGYGWRYYYWGHGTQVTVSS | low polyreactivity
38 | QVQLVESGGGLVQAGGSLRLSCAASGSIFGYYAMGWYRQAPGTERELVAAINSDGSTDYADSVKGRFTISRDNAKNTVYLQMNSLKPEDTAVYYCATRYYSIFTFFISYTYDYWGQGTQVTVSS | low polyreactivity
39 | QVHLVESGGGLVQAGGSLRLSCAASGRTFYDYAMGWYRQAPGKERELVAAITYSGGSTFYADSVKGRFTISRDNAKNTFYLQMNSLKPEDTAVYYCAAEVLRLVGAAEYDYWGQGTQVTVSS | low polyreactivity
40 | QVQLVESGGGLVQAGGSLRLSCAASGSIFTKYAMGWYRQAPGKERELVAAISQGGASTRYADSVKGRFTISRDNAKNTVYLQMNSLKPVDTADEYCAAKSRHFWMDYWGQGTQVTVSS | high polyreactivity
41 | QVQLVESWGGLVQAGGSLRLSCAASGRIFGANARGWYRQAPGKERELVATITYGGTSTYYADSVKGRFTISRDNAKNSVYLQLNSLKPEYTADYYCAAASTYPLPYDFWGQGTQVTVSS | low polyreactivity
